From IntAct's records for PubMed 23937259

Target: pp1a_human PPP1CA (UniProt P62136)
Sequence (P62136 whole entry): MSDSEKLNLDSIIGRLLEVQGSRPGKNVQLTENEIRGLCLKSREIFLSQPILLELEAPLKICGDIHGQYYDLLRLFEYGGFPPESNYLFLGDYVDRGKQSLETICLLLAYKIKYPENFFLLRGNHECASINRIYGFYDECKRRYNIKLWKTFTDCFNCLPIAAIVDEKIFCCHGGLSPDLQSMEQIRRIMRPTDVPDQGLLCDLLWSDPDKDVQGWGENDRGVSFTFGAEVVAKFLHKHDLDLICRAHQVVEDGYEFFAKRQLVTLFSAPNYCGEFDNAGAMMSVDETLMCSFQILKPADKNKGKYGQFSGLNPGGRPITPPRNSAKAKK

| effect of a mutation on the interaction | Substance |
| --- | --- |
| increasing interaction strength | Leucine-rich repeat serine/threonine-protein kinase 2 (Homo sapiens), Q5S007 Y1699C |
| increasing interaction strength | Leucine-rich repeat serine/threonine-protein kinase 2 (Homo sapiens), Q5S007 N1437H |
| increasing interaction strength | Leucine-rich repeat serine/threonine-protein kinase 2 (Homo sapiens), Q5S007 R1441G |
| increasing interaction strength | Leucine-rich repeat serine/threonine-protein kinase 2 (Homo sapiens), Q5S007 S910A;S935A;S955A;S973A |
